Source: publication PMC9890572
“And” between values parts separate entries of the source, which are not always exact repeats. Equal entries are not always repeated.

Molecular target: smBiT–β-arrestin2 (UniProt P32121)
Test: split reporter

Sequence of UniProt P32121 (P32121 whole entry): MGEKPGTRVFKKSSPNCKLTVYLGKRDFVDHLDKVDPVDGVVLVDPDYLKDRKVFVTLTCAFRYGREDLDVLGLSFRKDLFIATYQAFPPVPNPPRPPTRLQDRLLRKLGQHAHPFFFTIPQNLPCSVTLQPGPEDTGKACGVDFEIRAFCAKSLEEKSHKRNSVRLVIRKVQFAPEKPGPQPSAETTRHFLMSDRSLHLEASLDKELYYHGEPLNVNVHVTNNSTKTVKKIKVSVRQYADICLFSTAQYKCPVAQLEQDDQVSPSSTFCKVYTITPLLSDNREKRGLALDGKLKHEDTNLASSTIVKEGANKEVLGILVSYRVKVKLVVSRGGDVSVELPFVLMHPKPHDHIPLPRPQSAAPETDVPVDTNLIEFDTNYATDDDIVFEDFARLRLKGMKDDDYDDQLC

other: -7.6 and -5.9
Substance: Gαi-LgBiT (from UniProt P63096 1-354) (natural protein)
